From publication PMC7344267

Target: T1, Nt^17 peptide, the seventeen-residue N-terminal region of huntingtin (htt)
T1 chain: MATLEKLMKAFESLKSF
Test: native MS
Details: remark: other sources report otherwise

For MATLEKLMKAFESLKSF [Nt^17 peptide, the seventeen-residue N-terminal region of huntingtin (htt)], the normalized collision energy for 50% signal decay of the complex was 20 NCE and the stoichiometry N was 4.
